Test [1] addresses T1, human ROR1 protein (GenBank accession No. NP_005003.2) (human, UniProt Q01973 30-937).
T1 construct: whole, on cells; also called hROR1; endogenous human ROR1
Description: flow cytometry on NCI-H358 cells, relative affinity. How it is done: To inspect response of the antibodies obtained as described above to an endogenous human ROR1, response to an ROR1 high expressing cell NCI-H358 (ATCC accession No. CRL-5807) line was observed as below. The antibodies were purified from the culture supernatant of each hybridoma clone by a general affinity purification method using Protein A-Sepharose, respectively. The obtained purified antibodies were analyzed for the average fluorescence intensity of flow cytometry under the same condition (the same number of NCI-H358 (1×10⁵), the same concentration of respective purified antibodies, and the same concentration of secondary (detected) antibodies). Further, data was acquired also for the average fluorescence intensity that depends on the antibody concentration, the detection limit at a low concentration was analyzed, and thereby relative affinity was evaluated. FIG. 2 to FIG. 4 illustrate the results in a form of graphs. The horizontal axis of each graph represents the used antibody concentration (ng/mL), and the vertical axis represents the average fluorescence intensity (MFI) in flow cytometry. FIG. 2A is a diagram illustrating the response of anti-human ROR1 antibodies to ROR1 expressing cells of acquired monoclonal antibodies (2 AM series and 2AC series). […]
(In general: Flow cytometry measures light scatter and fluorescence of single cells or particles in a stream.)

For test [2], the target named is T1, human ROR1 protein (GenBank accession …). The test can be described thus: flow cytometry, Alexa Fluor 488 labeled antibody at 1 µg/ml on ROR1 high (NCI-H1975, PC-9) and ROR1 low (A427, NCI-H460) expressing cell lines. From the text: To inspect response of antibodies obtained as described above to an endogenous human ROR1, the response to the ROR1 high expressing cell line (NCI-H1975, PC-9) and the ROR1 low expressing cell line (A427, NCI-H460) was observed as follows. Note that NCI-H1975 (ATCC accession No. CRL-5908), A427 (ATCC accession No. HTB-53), and NCI-H460 (ATCC accession No. HTB-177) were purchased from American Type Culture Collection. The PC-9 cell line (RCB 4455) was obtained from RIKEN cell bank. Various cell lines were seeded on 6-well dishes to have 2×10⁵/well, cultured at 37 degrees Celsius for 24 hours, and collected after PBS washing. After chimerized antibodies labeled by using Alexa Fluor (registered trademark) 488 Antibody Labeling Kit (Thermo Fisher Scientific; A20181) were diluted to 1 μg/ml and reacted on ice for one hour, the resultant was washed with a PBS, and the reaction intensity was analyzed by flow cytometry. […] FIG. 6 illustrates graphs indicating the response of chimerized antibodies to the ROR1 high expressing cell line and the ROR1 low expressing cell line.

Four molecules from patent publication US20220323598A1 (NATIONAL UNIVERSITY CORPORATION TOKAI NATIONAL HIGHER …, published 2022) can be followed below.

T1 sequence (Q01973 30-937): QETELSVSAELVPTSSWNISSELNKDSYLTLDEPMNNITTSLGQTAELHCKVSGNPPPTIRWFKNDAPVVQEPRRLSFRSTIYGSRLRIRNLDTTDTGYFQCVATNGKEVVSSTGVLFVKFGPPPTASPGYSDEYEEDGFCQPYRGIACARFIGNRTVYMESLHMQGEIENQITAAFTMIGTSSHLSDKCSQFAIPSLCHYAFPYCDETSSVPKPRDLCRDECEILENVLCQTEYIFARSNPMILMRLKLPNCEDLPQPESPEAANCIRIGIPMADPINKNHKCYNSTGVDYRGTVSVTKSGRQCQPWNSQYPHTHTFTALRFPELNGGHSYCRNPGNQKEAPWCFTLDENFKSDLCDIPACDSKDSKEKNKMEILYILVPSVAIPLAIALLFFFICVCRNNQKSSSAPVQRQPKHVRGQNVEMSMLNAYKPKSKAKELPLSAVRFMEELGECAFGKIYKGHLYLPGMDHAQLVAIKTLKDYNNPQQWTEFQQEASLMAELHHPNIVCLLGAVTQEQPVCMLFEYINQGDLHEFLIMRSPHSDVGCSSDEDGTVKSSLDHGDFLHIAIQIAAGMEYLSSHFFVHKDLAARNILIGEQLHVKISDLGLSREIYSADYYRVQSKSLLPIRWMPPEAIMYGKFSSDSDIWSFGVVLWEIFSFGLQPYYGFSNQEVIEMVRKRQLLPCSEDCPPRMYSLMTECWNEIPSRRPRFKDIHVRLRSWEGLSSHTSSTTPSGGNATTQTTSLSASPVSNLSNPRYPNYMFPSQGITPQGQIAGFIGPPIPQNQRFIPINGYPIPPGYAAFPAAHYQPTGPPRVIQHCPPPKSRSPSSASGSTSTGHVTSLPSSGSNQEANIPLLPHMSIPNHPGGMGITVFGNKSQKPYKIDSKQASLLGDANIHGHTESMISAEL

B1: 2DC_5-2 (antibody, mouse IgG1, V domains shown)
VH: EVKLVESGGGLVKPGGSLKLSCAASGFTFSSYAMSWVRQTPEKRLEWVAAINTKGGSTYYPDTVKDRFTISRDNAKNILYLQMSSLRSEDTALYYCARHEPVYDYAMDYWGQGTSVTVSS
VL: DIKMTQSPSSMYASLGERVTITCKASQDINSYLSWFQQKPGKSPKTLIYRANRLVDGVPSRFSGSGSGQDYSLTISSLECGDMGIYYCLQYDEFPYTFGGGTKLEIK
notes: VH was cloned with a mouse IgG1 CH1 primer and VL with a kappa constant region primer; also called clone 2DC_5-2
Turning to B1, the binding result in test [1] was “binds”.

B2: chimeric antibody M1 (antibody, human IgG1, V domains shown)
VH: EVKLVESGGGLVKPGGSLKLSCAASGFTFSSYAMSWVRQTPEKRLEWVAAINTKGGSTYYPDTVKDRFTISRDNAKNILYLQMSSLRSEDTALYYCARHEPVYDYAMDYWGQGTSVTVSS
VL: DIKMTQSPSSMYASLGERVTITCKASQDINSYLSWFQQKPGKSPKTLIYRANRLVDGVPSRFSGSGSGQDYSLTISSLECGDMGIYYCLQYDEFPYTFGGGTKLEIK
notes: Mouse VH and VL of 2DC_5-2 in a vector carrying the human IgG1 constant region; also called chimerized antibody obtained from clone 2DC_5-2
Take B2: the binding result in test [2] is reported as “binds”.

B3: 6AM_120-2 (antibody, mouse IgG1, V domains shown)
VH: EIQLQQSGAELVKPGASVKISCKASGYSFTGYNMNWVKQSHGKSLEWIGNINPYYGNTSYNQKFKGKATLTVDKSSSTAYMQLNSLTSEDSAVYYCAREGFEYFDYWGQGTTLTVSS
VL: DIQMTQSPASLSASVGETVTITCRASENIYSYLAWYQQKQGKSPQLLVYNVKTLAEGVPSRFSGSGSGTQFSLKINSLQPEDFGSYYCQHHYGIPYTFGSGTKLEIK
notes: VH was cloned with a mouse IgG1 CH1 primer and VL with a kappa constant region primer
Turning to B3, in test [1], the binding result was “binds”.

B4: chimeric antibody M3 (antibody, human IgG1, V domains shown)
VH: EIQLQQSGAELVKPGASVKISCKASGYSFTGYNMNWVKQSHGKSLEWIGNINPYYGNTSYNQKFKGKATLTVDKSSSTAYMQLNSLTSEDSAVYYCAREGFEYFDYWGQGTTLTVSS
VL: DIQMTQSPASLSASVGETVTITCRASENIYSYLAWYQQKQGKSPQLLVYNVKTLAEGVPSRFSGSGSGTQFSLKINSLQPEDFGSYYCQHHYGIPYTFGSGTKLEIK
notes: Mouse VH and VL of 6AM_120-2 in a vector carrying the human IgG1 constant region; also called chimerized antibody obtained from clone 6 AM_120-2
As for B4, the binding result in test [2] was “binds”.
